Legend:
[1] = biological target: T1, hARTC1 in the presence of hARTC3 (hARTC1–hARTC3 heterodimer) (Homo sapiens, UniProt P52961); experiment: etheno-NAD+ fluorescence kinetics; assay type: biochemical; conditions: 20 mM Tris-HCl pH 8.0, 37°C; hARTC1 with hARTC3 added
T1 construct: gene ART1; GST-hARTC1 (N23-C295) with His-hARTC3 (N27-C362), both from E. coli; heterodimer by size exclusion; with Ecto-ADP-ribosyltransferase 3
T1 sequence (P52961 23-295): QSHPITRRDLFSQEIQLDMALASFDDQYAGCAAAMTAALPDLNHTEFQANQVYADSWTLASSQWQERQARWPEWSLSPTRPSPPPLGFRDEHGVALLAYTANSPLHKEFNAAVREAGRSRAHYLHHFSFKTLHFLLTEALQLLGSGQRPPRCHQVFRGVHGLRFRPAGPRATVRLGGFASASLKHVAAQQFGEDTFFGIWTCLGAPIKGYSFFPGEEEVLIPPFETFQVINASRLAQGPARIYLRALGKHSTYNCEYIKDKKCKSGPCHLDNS
T1 sequence (Q13508 27-362 partner): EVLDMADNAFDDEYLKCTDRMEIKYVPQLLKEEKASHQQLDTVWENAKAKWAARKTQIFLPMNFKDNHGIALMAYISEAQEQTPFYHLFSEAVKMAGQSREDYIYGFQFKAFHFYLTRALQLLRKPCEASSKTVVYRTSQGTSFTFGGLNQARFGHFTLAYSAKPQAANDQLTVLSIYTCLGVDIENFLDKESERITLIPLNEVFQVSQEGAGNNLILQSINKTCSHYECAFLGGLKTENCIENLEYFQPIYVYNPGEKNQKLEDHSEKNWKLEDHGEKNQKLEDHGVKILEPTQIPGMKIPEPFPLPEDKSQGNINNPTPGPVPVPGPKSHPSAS

[2] = substrate: NC(=O)c1ccc[n+]([C@@H]2O[C@H](COP(=O)(O)OP(=O)(O)OC[C@H]3O[C@@H](n4cnc5c4ncn4ccnc54)[C@H](O)[C@@H]3O)[C@@H](O)[C@H]2O)c1; experiment: etheno-NAD+ NAD+ hydrolase fluorescence assay, Lineweaver-Burk; assay type: biochemical, Homo sapiens; conditions: 20 mM Tris-HCl pH 8.0, 37°C, 60 min, etheno-NAD+ 0-10 μM, enzyme 10 μg/ml
[3] = biological target: T2, His-hARTC3 (N27–C362) (human, UniProt Q13508 27-362); experiment: pull-down; GST-hARTC1 (N23–C295) and His-hARTC3 (N27–C362) purified from E. coli, incubated with Glutathione Sepharose 4B and Ni-chelating Sepharose, 4°C, 2 h; washes in NETN 100; blots with anti-His and anti-GST; conditions: both partners purified
T2 construct: human ARTC3 residues 27-362, printed as N27–C362 (N and C read as the N- and C-terminal limits), in pET-15b; also called His-ARTC3 (N27–C362); source: E. coli BL21 (Codon Plus), purified (Ni-chelating Sepharose); not shown: His tag, N-terminal, kept
T2 sequence (looked up): T1 sequence (Q13508 27-362 partner)

Molecule: NC(=O)c1ccc[n+]([C@@H]2O[C@H](COP(=O)(O)OP(=O)(O)OC[C@H]3O[C@@H](n4cnc5c4ncn4ccnc54)[C@H](O)[C@@H]3O)[C@@H](O)[C@H]2O)c1 [etheno-NAD^+]
- etheno-NAD+ fluorescence kinetics [1]: Enzymatic kinetics for etheno-NAD^+ of hARTC1 in the presence (green) or absence (red)

B1: GST-hARTC1 (N23–C295) (domain or fragment, human, UniProt P52961 23-295, looked up)
chain: T1 sequence (P52961 23-295)
notes: human ARTC1 residues 23-295, printed as N23–C295 (N and C read as the N- and C-terminal limits), in pGEX-4T-1; also called GST-ARTC1 (N23–C295); source: E. coli BL21 (Codon Plus), purified (Glutathione Sepharose 4B); not shown: GST, N-terminal, kept
- Km [2]: 11.59 ± 1.57 µM
- binding result [3]: binds

B2: hARTC5 (GST-ARTC5 (N23–C291)) (Homo sapiens) (protein)
chain: VPILPLGLAPDTFDDTYVGCAEEMEEKAAPLLKEEMAHHALLRESWEAAQETWEDKRRGLTLPPGFKAQNGIAIMVYTNSSNTLYWELNQAVRTGGGSRELYMRHFPFKALHFYLIRALQLLRGSGGCSRGPGEVVFRGVGSLRFEPKRLGDSVRLGQFASSSLDKAVAHRFGNATLFSLTTCFGAPIQAFSVFPKEREVLIPPHEVFLVTRFSQDGAQSLVTLWSYNQTCSHFNCAYLGGEKRRGCVSAPGALGTGDLHMTKRHLQQP
- Km [2]: 56.78 ± 11.90 µM

Source: paper PMC10928986, “ARTC1-mediated VAPB ADP-ribosylation regulates calcium homeostasis” (Journal of Molecular Cell Biology, 2023)
